Assay results published in US20050037969A1 (ARBOR VITA, published 2005).
Ends that are not written are not given here. * marks the point of attachment. Biotin = O=C1N[C@H]2[C@H](CS[C@H]2CCCCC(=O)*)N1

What was measured:
Assay in all cases: A/G assays
[1] = target: T1, GST-TAX-IP2 PDZ domain fusion protein (human, UniProt O14908 129-216)
T1 construct: also called TAX-1P2; TAX2; not shown: glutathione S-transferase encoded by vector pGEX-3X (Pharmacia)
T1 chain: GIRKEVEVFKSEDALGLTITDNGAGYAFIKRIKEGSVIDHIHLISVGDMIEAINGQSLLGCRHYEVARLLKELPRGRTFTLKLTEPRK

[2] = target: T2, PICK1 PDZ-GST fusion protein (Bos taurus (Bovine), UniProt Q2T9M1 17-105)
T2 construct: Order of GST and PDZ part and limits not seen in the excerpts

[3] = target: T3, GST-AF6 PDZ domain fusion protein (Homo sapiens (Human), UniProt P55196 1001-1093)
T3 construct: also called af-6 protein; not shown: glutathione S-transferase encoded by vector pGEX-3X (Pharmacia)
T3 sequence: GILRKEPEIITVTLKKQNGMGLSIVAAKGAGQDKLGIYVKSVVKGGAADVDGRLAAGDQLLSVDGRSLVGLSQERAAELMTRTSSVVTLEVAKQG

[4] = target: T4, SP short PDZ-GST fusion protein (Homo sapiens (Human), UniProt O43464 350-435)
T4 construct: The label SP short is not explained in the excerpts
T4 sequence: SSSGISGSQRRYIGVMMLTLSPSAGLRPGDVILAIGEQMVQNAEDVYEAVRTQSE

[5] = target: T5, X11β PDZ-GST fusion protein (Rattus norvegicus (Rat), UniProt O35431 560-745)
T5 construct: Order of GST and PDZ part and limits not seen in the excerpts
T5 chain: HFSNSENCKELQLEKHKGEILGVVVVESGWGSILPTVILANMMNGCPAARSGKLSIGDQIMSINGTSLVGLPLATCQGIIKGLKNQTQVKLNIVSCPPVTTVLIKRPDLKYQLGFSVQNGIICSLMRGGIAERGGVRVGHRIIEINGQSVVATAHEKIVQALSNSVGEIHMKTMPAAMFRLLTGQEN

[6] = target: T6, GST-PDZK1 fusion protein (PDZ domains 2-4) (Homo sapiens, UniProt Q5T2W1 134-457)
T6 construct: not shown: glutathione S-transferase encoded by vector pGEX-3X (Pharmacia)
T6 sequence: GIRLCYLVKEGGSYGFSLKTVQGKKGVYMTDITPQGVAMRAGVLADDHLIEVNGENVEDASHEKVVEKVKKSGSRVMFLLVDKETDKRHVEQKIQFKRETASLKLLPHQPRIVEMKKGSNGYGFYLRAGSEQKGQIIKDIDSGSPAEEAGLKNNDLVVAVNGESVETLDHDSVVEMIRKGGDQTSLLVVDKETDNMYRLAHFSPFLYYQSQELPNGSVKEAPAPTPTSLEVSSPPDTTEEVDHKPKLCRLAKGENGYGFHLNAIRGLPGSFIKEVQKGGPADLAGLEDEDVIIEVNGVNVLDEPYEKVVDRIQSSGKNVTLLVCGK

[7] = target: T7, GST-LIM protein PDZ domain fusion protein (Human, UniProt Q96HC4 2-85)
T7 construct: also called Human LIM protein; not shown: glutathione S-transferase encoded by vector pGEX-3X (Pharmacia)
T7 sequence: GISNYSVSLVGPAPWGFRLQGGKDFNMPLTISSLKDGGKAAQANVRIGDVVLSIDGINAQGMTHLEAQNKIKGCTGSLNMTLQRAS

[8] = target: T8, K559 PDZ-GST fusion protein (Homo sapiens (Human), UniProt Q9Y6V0 4489-4593)
T8 construct: Order of GST and PDZ part and limits not seen in the excerpts
T8 sequence: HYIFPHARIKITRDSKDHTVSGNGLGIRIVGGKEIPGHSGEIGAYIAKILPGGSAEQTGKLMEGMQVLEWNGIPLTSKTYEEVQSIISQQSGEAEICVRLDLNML

[9] = target: T9, GST-TAX-IP40 PDZ domain fusion protein (human, UniProt Q6B4M5 150-252 (rat entry))
T9 construct: also called TAX40; not shown: glutathione S-transferase encoded by vector pGEX-3X (Pharmacia)
T9 sequence: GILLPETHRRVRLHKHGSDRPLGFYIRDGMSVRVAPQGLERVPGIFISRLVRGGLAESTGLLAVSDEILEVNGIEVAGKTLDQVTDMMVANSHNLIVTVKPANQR

[10] = target: T10, GST-TAX-IP43 PDZ domain fusion protein (human, UniProt Q13884 109-180)
T10 construct: also called TAX43; not shown: glutathione S-transferase encoded by vector pGEX-3X (Pharmacia)
T10 sequence: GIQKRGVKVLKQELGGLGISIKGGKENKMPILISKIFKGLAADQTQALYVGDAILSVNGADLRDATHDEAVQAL

[11] = target: T11, K316 PDZ-GST fusion protein (Homo sapiens (Human), UniProt Q14CM0 72-159)
T11 construct: Order of GST and PDZ part and limits not seen in the excerpts

[12] = target: T12, K858 PDZ-GST fusion protein (Homo sapiens (Human), UniProt Q8WWI1 1038-1131)
T12 construct: Order of GST and PDZ part and limits not seen in the excerpts
T12 sequence: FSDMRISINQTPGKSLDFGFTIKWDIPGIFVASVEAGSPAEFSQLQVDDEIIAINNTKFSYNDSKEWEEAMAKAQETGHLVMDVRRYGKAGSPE

[13] = target: T13, TAX-IP33 PDZ-GST fusion protein (Homo sapiens (Human), UniProt O14910 103-193)
T13 construct: Order of GST and PDZ part and limits not seen in the excerpts
T13 sequence: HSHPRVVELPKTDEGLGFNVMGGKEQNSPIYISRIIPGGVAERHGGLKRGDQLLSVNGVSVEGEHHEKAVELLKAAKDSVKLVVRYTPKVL

[14] = target: T14, GST-mouse syntenin fusion protein (Mus musculus, UniProt O08992 108-286)
T14 construct: also called Mus musculus Syntenin; not shown: glutathione S-transferase encoded by vector pGEX-3X (Pharmacia)
T14 chain: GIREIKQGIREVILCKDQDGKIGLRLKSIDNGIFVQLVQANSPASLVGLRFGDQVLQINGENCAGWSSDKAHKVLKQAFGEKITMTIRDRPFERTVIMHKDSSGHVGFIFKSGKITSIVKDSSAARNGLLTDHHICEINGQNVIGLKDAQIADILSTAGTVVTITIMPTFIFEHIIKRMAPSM

[15] = target: T15, GST-MPP1 PDZ domain fusion protein (Homo sapiens (Human), UniProt Q00013 67-152)
T15 construct: also called p55; 55 Kd erythrocyte membrane protein; not shown: glutathione S-transferase encoded by vector pGEX-3X (Pharmacia)
T15 sequence: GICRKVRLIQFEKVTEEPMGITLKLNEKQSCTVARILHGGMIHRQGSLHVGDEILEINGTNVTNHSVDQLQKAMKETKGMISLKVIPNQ

Measured: binding result

T11 sequence (Q14CM0 72-159 limits assumed): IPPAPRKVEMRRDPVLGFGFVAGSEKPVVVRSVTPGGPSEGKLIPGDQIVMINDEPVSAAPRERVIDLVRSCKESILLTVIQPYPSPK
T2 sequence (Q2T9M1 other isoform, or with tags, fused parts or gaps limits assumed): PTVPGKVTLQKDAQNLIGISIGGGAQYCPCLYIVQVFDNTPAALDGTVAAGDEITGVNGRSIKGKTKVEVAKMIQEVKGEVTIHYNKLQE

Biotin-QFMTADETRNLQNVDMKIGV (also called CD44 (long form)) [CD44 C-terminal peptide AA9L, biotinylated]
not listed: [14] | [15]
no binding: all other assays above

Biotin-QGDPALQDAGDSSRKEYFI (also called GC) [Glycophorin C C-terminal peptide AA37L, biotinylated]
not listed: [3] | [15]
no binding: all other assays above

Biotin-AWDDSARAAGGQGLHVTAL [LPAP C-terminal peptide AA30L, biotinylated]
not listed: [11]
no binding: all other assays above

B1: PAG C-terminal peptide AA58L, biotinylated (peptide)
peptide: Biotin-KENDYESISDLQQGRDITRL
notes: also called Phosphoprotein Associated with GEMs
not listed: [11]
no binding: all other assays above

Biotin-ARKANMKGSYSLVEAQKSKV (also called CD106) [VCAM1 C-terminal peptide AA17L, biotinylated]
not listed: [15]
no binding: all other assays above

B2: Spectrin (beta) C-terminal peptide AA32L, biotinylated (peptide)
peptide: Biotin-SFPPCGHRENVPGQSLVSFV
notes: Marked (S), sticky; also called Spectrin beta (S); Spectrin β
not listed: [3] | [10] | [11] | [13] | [15]
no binding: all other assays above

B3: CDw137 (4-1BB ILA) C-terminal peptide AA21L (peptide)
peptide: Biotin-QEEDGCSCRFPEEEEGGCEL
modifications: cysteine pairing not given here
notes: Marked (S), sticky peptide with high background; also called CDw137 (4-1BB ILA) (S)
not listed: [2] | [4] | [8] | [11] | [13]
no binding: all other assays above

Biotin-TREDIYVNYPTFSRRPKTRV [DNAM-1 C-terminal peptide AA22L, biotinylated]
not listed: [3] | [7] | [15]
no binding: all other assays above

B4: V-gated Ca2+ channel C-terminal peptide AA46L (peptide)
peptide: Biotin-SSGGRARHSYHHPDQDHWC
notes: Marked (S), sticky peptide with high background; also called V-gated Ca2+ channel (S)
not listed: [2] | [4] | [11] | [13]
no binding: all other assays above
